A value given as a limit tells only on which side of the number the result lay.

Targets include HLA-A*02:02; HLA-A*02:03; HLA-A*02:06; HLA-A*68:02; HLA-A*02:01; HLA-A*23:01; HLA-A*24:02; HLA-A*29:02; HLA-A*30:02; HLA-A*01:01; HLA-A*26:01.
Common to all, as to test: IEDB peptide-MHC binding, purified MHC/competitive/radioactivity; filed as Kd, often an IC50 or EC50 that approximates it; ≥ and ≤ were set here for values at or beyond the usual limits of such assays
Conditions in all cases: source organism: Plasmodium falciparum 3D7

As to RLPVICSFLV, the Kd – broadly, the equilibrium constant for the complex coming apart – is 2.5 nM in the assay with HLA-A*02:02, 33 nM with HLA-A*02:03, 19 nM in the assay with HLA-A*02:06 and 9180 nM with HLA-A*68:02.

In the case of FLVFLVFSNV, the Kd in the assay with HLA-A*02:01 amounted to 269 nM; with HLA-A*02:02, 212 nM; with HLA-A*02:06, 232 nM; with HLA-A*68:02 it was 5390 nM.

For the sequence TYGIIVPVL, the Kd with HLA-A*23:01 was 41 nM; with HLA-A*24:02, 248 nM; with HLA-A*29:02, not below 10000 nM; with HLA-A*30:02, 1520 nM.

With NILIVLYYL, the dissociation constant Kd in the assay with HLA-A*02:01 is not below 10000 nM; with HLA-A*02:02 it was 1610 nM; with HLA-A*02:03, 8780 nM; with HLA-A*02:06, 1090 nM; with HLA-A*68:02 it was not below 10000 nM.

In the case of VICSFLVFLV, the dissociation constant (Kd) in the assay with HLA-A*02:02 stood at 415 nM; in the assay with HLA-A*02:03 it was 2920 nM; with HLA-A*02:06, 197 nM; with HLA-A*68:02, 1950 nM.

Regarding NFINFIKVL, the Kd with HLA-A*23:01 was 1040 nM; in the assay with HLA-A*24:02 it was not below 10000 nM; in the assay with HLA-A*29:02, not below 10000 nM; with HLA-A*30:02, not below 10000 nM.

With MFVPKYFEL, the Kd with HLA-A*23:01 amounted to 11 nM; with HLA-A*24:02 it was 266 nM; with HLA-A*29:02, 2560 nM; with HLA-A*30:02, 8560 nM.

Turning to LLNESNIFL, the Kd with HLA-A*02:01 is 43 nM; with HLA-A*02:02 it was 2.5 nM; with HLA-A*02:03, 24 nM; with HLA-A*02:06, 143 nM; with HLA-A*68:02, 4480 nM.

As to VYRHCEYIL, the Kd with HLA-A*23:01 is 64 nM; with HLA-A*24:02 it was 2200 nM; with HLA-A*29:02, not below 10000 nM; with HLA-A*30:02, 3330 nM.

On to RMTSLKNEL, for which the Kd with HLA-A*24:02 is not below 10000 nM; with HLA-A*29:02, not below 10000 nM; with HLA-A*30:02 it was 14 nM.

In the case of RLFEESLGI, the Kd with HLA-A*02:02 was 1.9 nM; with HLA-A*02:03 it was 5.5 nM; with HLA-A*02:06 it was 68 nM; with HLA-A*68:02, 418 nM.

In the case of SFFMNRFYI, the Kd turned out to be 11 nM in the assay with HLA-A*23:01, 172 nM with HLA-A*24:02, 200 nM with HLA-A*29:02 and 1020 nM with HLA-A*30:02.

Turning to VLFLQMMNV, the equilibrium dissociation constant (Kd) in the assay with HLA-A*02:01 came to 31 nM; with HLA-A*02:02, 1.8 nM; with HLA-A*02:03, 2.7 nM; with HLA-A*02:06 it was 9.5 nM; with HLA-A*68:02, 323 nM.

Consider YQDPQNYEL, for which the dissociation constant Kd was 79 nM in the assay with HLA-A*02:01; 18 nM in the assay with HLA-A*02:02; 441 nM in the assay with HLA-A*02:03; 52 nM with HLA-A*02:06; not below 10000 nM with HLA-A*68:02.

For VYYNILIVL, the Kd with HLA-A*23:01 was 52 nM; with HLA-A*24:02, 265 nM; with HLA-A*29:02 it was not below 10000 nM; in the assay with HLA-A*30:02 it was 1130 nM.

Turning to SYKSSKRDKF, the Kd with HLA-A*23:01 is 797 nM; in the assay with HLA-A*24:02 it was 256 nM; in the assay with HLA-A*29:02, not below 10000 nM; in the assay with HLA-A*30:02, 88 nM.

Take NHEQKLSEY: the Kd with HLA-A*01:01, with HLA-A*26:01, in the assay with HLA-A*29:02 and in the assay with HLA-A*30:02 was not below 10000 nM in each case.

As for KYEALIKLL, the Kd is 484 nM in the assay with HLA-A*23:01, 2860 nM in the assay with HLA-A*24:02, not below 10000 nM with HLA-A*29:02 and not below 10000 nM with HLA-A*30:02.

As for LNEQLIYTY, the Kd was not below 10000 nM with HLA-A*01:01, 6210 nM with HLA-A*26:01, 2400 nM with HLA-A*29:02 and 4130 nM in the assay with HLA-A*30:02.

ATYGIIVPV: the Kd with HLA-A*02:01 is 3.2 nM; with HLA-A*02:02, 2 nM; in the assay with HLA-A*02:03, 2.8 nM; with HLA-A*02:06 it was 5 nM; with HLA-A*68:02, 21 nM.

For QNADKNFLY, the Kd in the assay with HLA-A*01:01 came to 3810 nM; with HLA-A*26:01, 166 nM; in the assay with HLA-A*29:02 it was 24 nM; in the assay with HLA-A*30:02 it was 663 nM.

Take DFFLKSKFNI: the Kd is 304 nM with HLA-A*23:01, 1650 nM in the assay with HLA-A*24:02, not below 10000 nM with HLA-A*29:02 and 2610 nM with HLA-A*30:02.

Turning to VSSIFISFY, the Kd came to 144 nM in the assay with HLA-A*01:01, 1640 nM in the assay with HLA-A*26:01, 1800 nM in the assay with HLA-A*29:02 and 55 nM with HLA-A*30:02.

In the case of FQAAESNERY, the Kd with HLA-A*01:01 came to 8960 nM; with HLA-A*26:01, 3510 nM; in the assay with HLA-A*29:02, 1780 nM; with HLA-A*30:02, 372 nM.

In the case of QEEQKKYIY, the Kd in the assay with HLA-A*01:01, with HLA-A*26:01, in the assay with HLA-A*29:02 and with HLA-A*30:02 was not below 10000 nM throughout.

Take FMNRFYITT: the Kd with HLA-A*02:02 was 18 nM; with HLA-A*02:06 it was 996 nM; with HLA-A*68:02 it was 6540 nM.

For LYYLFNQHI, the equilibrium dissociation constant (Kd) with HLA-A*23:01 was 1.4 nM; with HLA-A*24:02, 33 nM; with HLA-A*29:02 it was not below 10000 nM; in the assay with HLA-A*30:02 it was not below 10000 nM.

As to LEASISGKY, the Kd was not below 10000 nM in the assay with HLA-A*01:01, 3950 nM with HLA-A*26:01, not below 10000 nM with HLA-A*29:02 and 87 nM with HLA-A*30:02.

Take KFNILSSPL: the Kd with HLA-A*23:01 was 1760 nM; with HLA-A*24:02 it was 1730 nM; with HLA-A*29:02, not below 10000 nM; in the assay with HLA-A*30:02, 1280 nM.

As to NQMIFVSSI, the Kd with HLA-A*02:01 amounted to 250 nM; with HLA-A*02:02 it was 21 nM; with HLA-A*02:03, 3.6 nM; with HLA-A*02:06, 14 nM; with HLA-A*68:02, 198 nM.

Consider ELEASISGKY, for which the Kd with HLA-A*01:01 was 142 nM; with HLA-A*26:01, 23 nM; with HLA-A*29:02, not below 10000 nM; with HLA-A*30:02, 463 nM.

On to QAAESNERY, for which the Kd was 353 nM in the assay with HLA-A*01:01, 142 nM with HLA-A*26:01, not below 10000 nM with HLA-A*29:02 and 3010 nM with HLA-A*30:02.

Regarding TYKKKNNHI, the equilibrium dissociation constant (Kd) was 81 nM in the assay with HLA-A*23:01, 30 nM with HLA-A*24:02 and not below 10000 nM in the assay with HLA-A*29:02.

As for FVSSIFISFY, the Kd with HLA-A*01:01 is 118 nM; with HLA-A*26:01 it was 11 nM; with HLA-A*29:02, 22 nM; with HLA-A*30:02, 84 nM.

Source of the values: the Immune Epitope Database (IEDB).
